# According to US20220135940A1, “METHOD FOR PRODUCING KIDNEY STRUCTURE HAVING DENDRITICALLY BRANCHED COLLECTING DUCT FROM PLURIPOTENT STEM CELLS” (NATIONAL UNIVERSITY CORPORATION KUMAMOTO UNIVERSITY, priority 2018, published 2022):
# B1: activin A: homodimer of two inhibin BA chains (protein, UniProt P08476 311-426, looked up)
# Inhibin beta A chain: GLECDGKVNICCKKQFFVSFKDIGWNDWIIAPSGYHANYCEGECPSHIAGTSGSSLSFHSTVINHYRMRGHSPFANLKSCCVPTKLRPMSMLYYDDGQNIIKKDIQNMIVEECGCS
# modifications: Inhibin beta A chain
# notes: homodimer of two inhibin BA chains
# Experiments:
# Type in all cases: cell-based
# mouse ES cells [1] = experiment: AIM induction from mouse ES cells (procedure 3), AIM marker expression; conditions: Fgf9 at high concentrations
# Protocol: (§1) ES cells were differentiated in a serum-free medium as follows. The ES cells were dissociated with Accutase™ (ESGRO) and cultured in a serum-free mouse ES cell differentiation medium. The harvested cells were aggregated in a 96-well U-bottom low cell binding plate at 1,000 cells per aggregate to form embryonic bodies (EBs). After 48 hours (day 2), the EBs were dissociated with Accutase and re-aggregated in a serum-free differentiation medium supplemented with 10 ng/mL human activin A (R & D) (Procedure 1). After 24 hours (day 3), the medium was replaced with a medium containing 0.3 ng/mL human Bmp4 (R & D) and 10 μM CHIR 99021 (Procedure 2). After 36 hours (day 4.5), the medium was replaced with procedure 3 medium containing 0.1 μM retinoic acid, 100 ng/mL human Fgf9 and 10 μM SB431542 (Wako). On day 5.5 (24 hours later), the medium was replaced with a medium containing 0.1 μM retinoic acid, 100 ng/mL human Fgf9 and 5 μM CHIR99021 (“Procedure 4 medium”). The differentiation factors of the Hoxb7-GFP ES cell line are shown in the table below together with the differentiation factors of the Osr1-GFP ES cell line.
# Harvested spheroids or cells were homogenized, and total RNA was isolated using RNeasy Plus Micro Kit (Qiagen), and then a reverse-transcribed with random primers and Superscript III (Invitrogen). Quantitative PCR was carried out using Real-Time PCR system (Takara Bio) and Thunderbird SYBR qPCR Mix (Toyobo). With normalized by β-actin gene, relative mRNA expression levels were analyzed.
# Next, signaling for the AIM differentiation procedure was hypothesized, which is partially different from that for PIM, based on the gene expression profile minimally conserved, between anterior intermediate mesoderm (AIM) (Osr1+, Pax2+, Pax8+, Emx2+, Lhx1+, Gata3+) and posterior intermediate mesoderm (PIM) (Osr1+, Wtl+, Hoxll+) (Procedure 3 in FIG. 2).
# human iPS cells [2] = experiment: Induction of ITGA8+/PDGFRA- nephron progenitor cells from human iPS cells, FACS at day 12; conditions: epiblast patterning stage, absence of Bmp4
# Protocol: The previously reported protocol (Taguchi 2014 above) was modified and applied. In the presence of 10 μM Y27632 and 1 ng/mL human activin A, cells were reaggregated at 10,000 cells per aggregate in a V-bottom 96-well low cell binding plate, to form embryonic bodies (EBs). After 24 hours (day 1), the aggregates were transferred to a U-bottom 96-well low cell binding plate containing the mesoderm-inducing medium containing 10 μM CHIR. Subsequently, half of the culture medium was replaced with a fresh medium every other day (day 3 and day 5). On day 7, the medium was replaced with ABC3R medium containing 10 ng/mL human activin A, 3 ng/mL human Bmp4, 3 μM CHIR and 0.1 μM retinoic acid. On day 9, the medium was replaced with ClF medium containing 1 μM CHIR and 5 ng/mL human Fgf9.
# (§2) Cell aggregates induced from embryonic tissue or mouse ES cells/human iPS cells were dissociated and blocked with normal mouse serum and then cell surface marker staining was carried out in a buffer containing 1% BSA, 1×HBSS and 0.035% NaHCO3. Data analysis was performed with FlowJo software (Treestar).
# Next, the optimal time window for inducing anterior or posterior intermediate mesoderm from the nascent mesoderm was examined. […]
# mouse ES cells [3] = experiment: Induction of CXCR4+/KIT+ WD progenitors from mouse ES cells, FACS at day 6.25; conditions: Bmp4 in procedure 2, activin A in procedure 1
# Protocol: as §1
# On day 6.25, the induced spheroids were harvested and dissociated by incubating in 0.25% trypsin/EDTA at 37° C. for 6 minutes. After blocking in normal mouse serum, cell surface marker (CXCR4/KIT) staining was carried out in a buffer containing 1% BSA, 1×HBSS and 0.035% NaHCO3. The FACS-sorted 3,000 Hoxb7-GFP+/CXCR4+/KIT+ cells were aggregated in a V-bottom 96-well low cell binding plate to form spheroids. Subsequently, these were cultured using the above E8.75 embryonic tissue culture conditions.
# as §2
# human iPS cells [4] = experiment: Induction of CXCR4+/KIT+ WD progenitors from human iPS cells, FACS at day 6.25; conditions: epiblast patterning stage (day 0 to day 1), combination of activin A and Bmp4
# Protocol: Cells were reaggregated at 10,000 cells per aggregate in a V-bottom 96-well low cell binding plate using a medium containing 10 μM Y27632 and 10 ng/mL human activin A and 1 ng/mL human Bmp4 (“Procedure 1 medium”), to form embryonic bodies (EBs). After 24 hours (day 1), the aggregates were transferred to a U-bottom 96-well low cell binding plate containing a medium containing 10 μM CHIR and 1 ng/mL human Bmp4 (“Procedure 2 medium”). After 36 hours (day 2.5), the medium was replaced with a medium containing 0.1 μM retinoic acid, 100 ng/mL human Fgf9, 100 nM LDN193189 and 100 μM SB431542 (“Procedure 3 medium”). On day 4.5, the medium was replaced with a medium containing 0.1 μM retinoic acid, 5 μM CHIR, 100 ng/mL human Fgf9 and 30 nM LDN193189 (“Procedure 4 medium”).
# On day 6.25, the induced spheroids were harvested and dissociated by incubating in 0.25% trypsin/EDTA for 6 minutes at 37° C. After blocking in normal mouse serum, cell surface marker (CXCR4/KIT) staining was carried out in a buffer containing 1% BSA, 1×HBSS and 0.035% NaHCO3. The FACS-sorted 5,000 of CXCR4+/KIT+ cells were seeded in a V-bottom 96-well low cell binding plate and precipitated by the centrifuge (210 G for 4 minutes). The supernatant was replaced with a medium containing 10 μM Y27632, 0.1 μM retinoic acid, 1 μM CHIR, 5 ng/mL human Fgf9, 100 ng/mL human Fgf1, 10 nM LDN193189 and 10% growth factor reduced Matrigel (“Procedure 5 medium”). On day 8.5, the spheroids were transferred to a medium containing 10 μM Y27632, 0.1 μM retinoic acid, 3 μM CHIR, 5 ng/mL human Fgf9, 1 ng/mL human GDNF, 100 ng/mL human Fgf1, 10 nM LDN193189 and 10% growth factor reduced Matrigel (“Procedure 6 medium”). On day 10.5, the spheroids were transferred to a medium containing 10 μM Y27632, 0.1 μM retinoic acid, 3 μM CHIR, 2 ng/mL human GDNF, 100 ng/mL human Fgf1, 10 nM LDN193189 and 10% growth factor reduce Matrigel (“Procedure 7 medium”).
# as §2
# Next, the optimal time window for inducing anterior or posterior intermediate mesoderm from the nascent mesoderm was examined. Since the nascent mesoderm population is maintained by the high concentrations of Wnt agonists, the incubation period with Wnt agonists was varied and the subsequent differentiation was applied with conditions specific to the UB or metanephric nephron progenitor cell lineage. The induction efficiency of CXCR4+/KIT+ WD progenitor or ITGA8+/PDGFRA− nephron progenitor cell fraction was examined at day 6.25 or day 12, respectively. […]
molecule,measurement,setting,value
B1,induction of AIM markers,mouse ES cells [1],inhibitory to the induction of AIM markers
same,concentration at which induction of nephron progenitor cells was maximized,human iPS cells [2],1 ng/mL
same,"UB induction versus MM induction, concentration dependence",mouse ES cells [3],higher concentration of activin A was preferred for UB induction
same,concentration at which WD progenitor induction peaked,human iPS cells [4],10 ng/mL
